Source: patent US20160289338A1 (OXFORD BIOTHERAPEUTICS, published 2016)

Experiments:
[1] = target: T1, human Matriptase (cell-surface) (human, UniProt Q9Y5Y6 1-855); assay: flow cytometry on HT-29 cells, GMFI Facsarray; the legend box prints no unit, nmol/L is the unit of the concentration axis
T1 construct: Endogenous Matriptase on human tumour cell lines (HT-29, H69, SNU-1, A431, SW620, SKOV-3, MCF-7, A549); The protein on cells may be proteolytically processed to the stem; also called cell-surface human Matriptase; Matriptase full-length protein
T1 sequence: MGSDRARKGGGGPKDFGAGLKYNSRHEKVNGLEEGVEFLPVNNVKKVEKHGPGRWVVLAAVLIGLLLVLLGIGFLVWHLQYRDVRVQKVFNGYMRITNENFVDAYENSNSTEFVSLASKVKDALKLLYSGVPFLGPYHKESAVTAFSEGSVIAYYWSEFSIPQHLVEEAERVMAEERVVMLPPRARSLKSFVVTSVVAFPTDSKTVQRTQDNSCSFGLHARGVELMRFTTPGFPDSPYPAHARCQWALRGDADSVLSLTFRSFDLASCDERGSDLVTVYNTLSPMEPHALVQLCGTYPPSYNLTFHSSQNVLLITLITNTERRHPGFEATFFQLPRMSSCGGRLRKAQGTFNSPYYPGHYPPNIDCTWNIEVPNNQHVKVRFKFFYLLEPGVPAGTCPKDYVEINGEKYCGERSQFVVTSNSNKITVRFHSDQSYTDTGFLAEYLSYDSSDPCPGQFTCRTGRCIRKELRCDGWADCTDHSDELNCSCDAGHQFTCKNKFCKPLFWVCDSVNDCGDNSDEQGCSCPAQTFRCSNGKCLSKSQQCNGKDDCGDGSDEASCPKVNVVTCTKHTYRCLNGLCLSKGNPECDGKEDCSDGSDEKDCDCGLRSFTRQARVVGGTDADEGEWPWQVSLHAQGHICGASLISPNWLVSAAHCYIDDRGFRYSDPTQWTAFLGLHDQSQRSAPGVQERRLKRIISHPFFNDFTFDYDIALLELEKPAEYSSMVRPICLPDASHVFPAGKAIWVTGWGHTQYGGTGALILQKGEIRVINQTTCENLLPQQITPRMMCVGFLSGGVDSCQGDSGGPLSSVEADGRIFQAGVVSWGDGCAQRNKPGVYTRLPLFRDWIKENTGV

[2] = target: T1, human Matriptase (cell-surface); assay: flow cytometry on H69 cells, GMFI Facsarray; the legend box prints no unit, nmol/L is the unit of the concentration axis
[3] = target: T1, human Matriptase (cell-surface); assay: cell-based or functional assay
[4] = target: T1, human Matriptase (cell-surface); assay: flow cytometry on SNU-1 cells, PE GMFI
Protocol: The specificity of antibodies against the Matriptase selected in Example 1 was tested by flow cytometry. To test the ability of the antibodies to bind to the cell surface Matriptase protein, the antibodies were incubated with the Matriptase-expressing cells. Cells were washed in FACS buffer (DPBS, 2% FBS), centrifuged and resuspended in 100 μl of the diluted primary Matriptase antibody (also diluted in FACS buffer). The antibody-cell line complex was incubated on ice for 60 min and then washed twice with FACS buffer as described above. The cell-antibody pellet was resuspended in 100 μl of the diluted secondary antibody (also diluted in FACS buffer) and incubated on ice for 60 min on ice. The pellet was washed as before and resuspended in 200 μl FACS buffer. The samples were loaded onto the BD FACScanto II flow sytometer and the data analyzed using the BD FACSdiva software.

B1: Matriptase_A1 (antibody, V domains shown)
VH: EVQLLESGGGLVQPGGSLRLSCAASGFTFRNYDMSWVRQAPGKGLEWVSSISYSGGSTYYADSVKGRFTISRDNSKNTLSLQMNSLRAEDTAVYYCAKRGATPFDYWGQGSLVTVSS
VL: not shown
notes: Fully human monoclonal IgG from a hybridoma of an HCo12 HuMAb Mouse; supernatants were screened for human gamma, kappa antibodies; a human IgG1 isotype control was used in the ADCC assay
EC50 [1]: 0.222 nM | EC50 [2]: 3.45 nM | EC50, MabZAP internalization assay, H69 cells [3]: 0.074 nM | EC50, MabZAP internalization assay, HT-29 cells [3]: 0.183 nM | EC50 (read off the curve) [4]: ~0.5 nM
